From patent US10562947B2, “Compositions and methods for preventing or treating diseases, conditions or processes characterized by aberrant fibroblast proliferation and extracellular matrix deposition” (MOERAE MATRIX, INC., priority 2011, dated 2020)

Experiments:
Assay in all cases: Kinase Profiling Assay
Assay type in all cases: biochemical
Conditions in all cases: 100 μM peptide
[1] = molecular target: T1, DRAK1(h) (Homo sapiens, UniProt Q9UEE5)
T1 sequence (Q9UEE5 1-414): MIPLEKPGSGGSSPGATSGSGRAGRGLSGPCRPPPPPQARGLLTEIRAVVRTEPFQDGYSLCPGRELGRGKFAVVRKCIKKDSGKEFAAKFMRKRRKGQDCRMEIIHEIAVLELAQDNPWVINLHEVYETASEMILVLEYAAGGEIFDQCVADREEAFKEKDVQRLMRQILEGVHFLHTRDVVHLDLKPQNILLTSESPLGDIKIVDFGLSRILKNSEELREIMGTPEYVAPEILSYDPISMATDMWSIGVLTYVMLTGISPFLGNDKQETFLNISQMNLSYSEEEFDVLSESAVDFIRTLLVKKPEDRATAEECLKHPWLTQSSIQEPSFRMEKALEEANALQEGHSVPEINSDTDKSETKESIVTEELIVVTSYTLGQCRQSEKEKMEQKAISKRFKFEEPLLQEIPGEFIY
Protocol: (§1) Every kinase activity measurement was conducted in duplicate.
(§2) In addition to determining the IC50 of the compound, the specificity of MK2 inhibitory peptides was assessed by examining activities of all 266 human kinases available for testing in the Millipore kinase profiling service (Table 1).

[2] = molecular target: T2, Tec(h) activated (Homo sapiens, UniProt P42680)
T2 sequence (P42680 1-631): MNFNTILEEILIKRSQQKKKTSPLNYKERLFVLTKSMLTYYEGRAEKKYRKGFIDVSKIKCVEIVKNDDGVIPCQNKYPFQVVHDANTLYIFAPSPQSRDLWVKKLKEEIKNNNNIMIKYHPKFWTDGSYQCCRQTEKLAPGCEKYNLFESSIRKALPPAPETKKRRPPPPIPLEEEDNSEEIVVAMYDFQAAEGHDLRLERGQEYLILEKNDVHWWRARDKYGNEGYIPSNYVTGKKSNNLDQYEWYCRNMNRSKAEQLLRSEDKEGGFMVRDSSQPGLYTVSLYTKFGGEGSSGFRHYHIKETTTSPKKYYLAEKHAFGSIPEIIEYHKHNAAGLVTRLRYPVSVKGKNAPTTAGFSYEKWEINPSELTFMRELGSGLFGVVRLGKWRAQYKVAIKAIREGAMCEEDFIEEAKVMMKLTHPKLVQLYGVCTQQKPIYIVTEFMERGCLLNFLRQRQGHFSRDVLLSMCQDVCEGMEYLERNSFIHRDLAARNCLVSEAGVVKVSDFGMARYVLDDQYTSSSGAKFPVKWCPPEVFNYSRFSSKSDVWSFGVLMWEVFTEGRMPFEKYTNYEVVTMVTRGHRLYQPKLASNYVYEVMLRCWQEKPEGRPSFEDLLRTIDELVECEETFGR
Protocol: as §1, §2

[3] = molecular target: PASK(h) (Homo sapiens, UniProt Q96RG2)
PASK(h), sequence (Q96RG2 whole entry): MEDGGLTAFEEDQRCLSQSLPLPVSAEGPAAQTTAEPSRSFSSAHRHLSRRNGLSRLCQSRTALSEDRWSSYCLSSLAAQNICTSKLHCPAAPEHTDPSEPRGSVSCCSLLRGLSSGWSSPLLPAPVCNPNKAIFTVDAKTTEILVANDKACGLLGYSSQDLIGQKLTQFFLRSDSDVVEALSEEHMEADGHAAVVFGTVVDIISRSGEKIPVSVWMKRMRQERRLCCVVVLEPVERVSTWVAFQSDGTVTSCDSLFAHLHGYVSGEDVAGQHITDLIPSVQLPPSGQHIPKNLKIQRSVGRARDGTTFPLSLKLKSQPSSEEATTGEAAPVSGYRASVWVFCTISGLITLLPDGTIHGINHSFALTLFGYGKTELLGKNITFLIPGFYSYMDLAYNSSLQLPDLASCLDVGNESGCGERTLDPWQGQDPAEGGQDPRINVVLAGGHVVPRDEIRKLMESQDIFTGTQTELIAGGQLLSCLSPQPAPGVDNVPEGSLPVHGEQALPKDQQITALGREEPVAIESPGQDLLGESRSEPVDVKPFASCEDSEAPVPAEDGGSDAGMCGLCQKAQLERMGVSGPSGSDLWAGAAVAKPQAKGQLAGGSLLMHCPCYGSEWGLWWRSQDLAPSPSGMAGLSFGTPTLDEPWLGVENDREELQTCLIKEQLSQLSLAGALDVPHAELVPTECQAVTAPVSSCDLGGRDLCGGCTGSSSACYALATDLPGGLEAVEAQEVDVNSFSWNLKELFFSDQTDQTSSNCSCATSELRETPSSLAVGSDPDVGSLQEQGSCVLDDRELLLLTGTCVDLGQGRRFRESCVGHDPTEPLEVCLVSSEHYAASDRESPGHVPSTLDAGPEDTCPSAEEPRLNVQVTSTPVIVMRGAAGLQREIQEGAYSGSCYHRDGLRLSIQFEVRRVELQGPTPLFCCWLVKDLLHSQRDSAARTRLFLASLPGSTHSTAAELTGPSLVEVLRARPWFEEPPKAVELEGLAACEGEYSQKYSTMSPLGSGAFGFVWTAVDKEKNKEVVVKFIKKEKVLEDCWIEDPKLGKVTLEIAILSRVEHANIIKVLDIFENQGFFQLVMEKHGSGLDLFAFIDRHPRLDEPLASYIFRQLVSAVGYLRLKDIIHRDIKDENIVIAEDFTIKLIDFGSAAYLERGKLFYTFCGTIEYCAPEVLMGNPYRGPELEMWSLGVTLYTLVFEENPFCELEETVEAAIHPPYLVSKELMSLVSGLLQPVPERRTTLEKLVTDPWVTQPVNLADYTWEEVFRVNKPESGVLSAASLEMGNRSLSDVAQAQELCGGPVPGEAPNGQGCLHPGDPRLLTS
Protocol: as §1, §2

[4] = molecular target: Arg(h) (Homo sapiens, UniProt P42684)
Arg(h), sequence (P42684 whole entry): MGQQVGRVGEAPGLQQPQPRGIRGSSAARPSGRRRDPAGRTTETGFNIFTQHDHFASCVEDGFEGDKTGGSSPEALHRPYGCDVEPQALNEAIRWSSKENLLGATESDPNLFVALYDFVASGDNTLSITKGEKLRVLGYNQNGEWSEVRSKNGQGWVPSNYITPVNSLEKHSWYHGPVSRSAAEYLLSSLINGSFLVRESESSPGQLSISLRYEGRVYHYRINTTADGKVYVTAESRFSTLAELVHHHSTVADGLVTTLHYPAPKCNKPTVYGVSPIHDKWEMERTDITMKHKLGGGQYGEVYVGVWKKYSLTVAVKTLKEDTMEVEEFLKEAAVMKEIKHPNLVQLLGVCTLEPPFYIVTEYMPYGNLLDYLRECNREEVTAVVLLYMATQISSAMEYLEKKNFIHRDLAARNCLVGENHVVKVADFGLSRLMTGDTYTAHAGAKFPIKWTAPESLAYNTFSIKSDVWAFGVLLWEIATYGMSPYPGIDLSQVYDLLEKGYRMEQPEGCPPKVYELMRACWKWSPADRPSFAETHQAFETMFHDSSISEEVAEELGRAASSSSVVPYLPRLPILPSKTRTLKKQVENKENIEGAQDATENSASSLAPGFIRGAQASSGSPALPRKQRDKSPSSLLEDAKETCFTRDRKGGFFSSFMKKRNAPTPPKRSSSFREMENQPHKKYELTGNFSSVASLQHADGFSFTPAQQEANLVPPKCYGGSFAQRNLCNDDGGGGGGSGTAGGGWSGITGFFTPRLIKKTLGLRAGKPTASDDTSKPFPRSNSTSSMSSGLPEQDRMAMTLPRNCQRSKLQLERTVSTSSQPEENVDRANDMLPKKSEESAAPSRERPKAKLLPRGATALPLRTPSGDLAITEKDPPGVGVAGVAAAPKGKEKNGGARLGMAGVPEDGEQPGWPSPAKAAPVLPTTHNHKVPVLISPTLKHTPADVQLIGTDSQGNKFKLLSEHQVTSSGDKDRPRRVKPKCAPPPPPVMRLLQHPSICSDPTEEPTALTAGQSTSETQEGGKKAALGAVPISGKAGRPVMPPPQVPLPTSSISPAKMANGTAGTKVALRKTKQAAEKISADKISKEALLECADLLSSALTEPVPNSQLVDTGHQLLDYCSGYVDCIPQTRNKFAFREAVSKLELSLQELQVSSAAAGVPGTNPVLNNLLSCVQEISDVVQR
Protocol: as §1, §2

[5] = molecular target: T3, BrSK1(h) (Homo sapiens, UniProt Q8TDC3)
T3 sequence (Q8TDC3 1-778): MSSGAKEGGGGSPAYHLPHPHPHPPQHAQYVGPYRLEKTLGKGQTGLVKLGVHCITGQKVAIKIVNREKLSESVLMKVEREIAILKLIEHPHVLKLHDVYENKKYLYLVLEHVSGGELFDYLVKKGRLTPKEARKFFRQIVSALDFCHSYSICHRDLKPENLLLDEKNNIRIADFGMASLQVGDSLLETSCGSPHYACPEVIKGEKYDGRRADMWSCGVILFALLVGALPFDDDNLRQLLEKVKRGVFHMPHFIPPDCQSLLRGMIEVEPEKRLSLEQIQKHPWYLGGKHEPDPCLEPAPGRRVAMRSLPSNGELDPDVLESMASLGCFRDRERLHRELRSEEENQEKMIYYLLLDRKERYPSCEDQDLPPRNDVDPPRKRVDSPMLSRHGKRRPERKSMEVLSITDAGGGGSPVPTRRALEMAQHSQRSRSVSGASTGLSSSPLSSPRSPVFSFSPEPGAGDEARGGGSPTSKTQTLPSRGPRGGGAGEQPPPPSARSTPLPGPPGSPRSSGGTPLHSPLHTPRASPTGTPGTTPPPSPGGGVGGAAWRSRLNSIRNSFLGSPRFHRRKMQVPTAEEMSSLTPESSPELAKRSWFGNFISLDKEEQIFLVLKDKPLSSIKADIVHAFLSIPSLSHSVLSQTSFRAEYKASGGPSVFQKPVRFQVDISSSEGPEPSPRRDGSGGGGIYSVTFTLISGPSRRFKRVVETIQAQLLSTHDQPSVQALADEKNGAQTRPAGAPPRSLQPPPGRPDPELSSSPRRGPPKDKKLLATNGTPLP
Protocol: as §1, §2

[6] = molecular target: EphA5(h) (Homo sapiens, UniProt P54756)
EphA5(h), sequence (P54756 25-1037): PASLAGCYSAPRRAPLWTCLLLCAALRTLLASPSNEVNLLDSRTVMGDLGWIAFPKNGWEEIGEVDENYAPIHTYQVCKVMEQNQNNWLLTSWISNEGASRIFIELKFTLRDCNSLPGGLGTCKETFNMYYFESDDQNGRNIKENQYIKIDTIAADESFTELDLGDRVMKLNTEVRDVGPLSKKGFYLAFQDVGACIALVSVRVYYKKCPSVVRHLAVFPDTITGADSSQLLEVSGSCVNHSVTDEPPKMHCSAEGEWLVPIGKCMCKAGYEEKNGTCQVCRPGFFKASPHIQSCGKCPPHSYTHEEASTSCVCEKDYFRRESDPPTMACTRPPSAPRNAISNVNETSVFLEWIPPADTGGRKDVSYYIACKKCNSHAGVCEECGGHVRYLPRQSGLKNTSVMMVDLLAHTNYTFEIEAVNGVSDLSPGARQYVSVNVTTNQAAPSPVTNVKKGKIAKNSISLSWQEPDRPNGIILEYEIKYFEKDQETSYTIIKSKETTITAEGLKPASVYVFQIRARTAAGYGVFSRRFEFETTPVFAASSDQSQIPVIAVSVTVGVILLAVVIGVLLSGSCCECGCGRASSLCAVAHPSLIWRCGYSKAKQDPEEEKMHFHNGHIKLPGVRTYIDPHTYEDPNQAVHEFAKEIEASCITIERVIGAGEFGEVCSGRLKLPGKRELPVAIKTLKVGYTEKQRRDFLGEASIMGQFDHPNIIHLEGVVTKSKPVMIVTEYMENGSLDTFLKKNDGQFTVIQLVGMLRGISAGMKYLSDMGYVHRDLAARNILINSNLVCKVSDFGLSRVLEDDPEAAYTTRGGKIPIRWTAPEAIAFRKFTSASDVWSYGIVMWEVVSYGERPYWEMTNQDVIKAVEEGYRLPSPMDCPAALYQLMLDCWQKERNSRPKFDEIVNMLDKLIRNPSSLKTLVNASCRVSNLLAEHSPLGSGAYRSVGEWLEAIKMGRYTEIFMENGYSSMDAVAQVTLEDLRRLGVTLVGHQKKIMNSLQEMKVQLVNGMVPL
Protocol: as §1, §2

[7] = molecular target: CaMKIδ(h) (Homo sapiens, UniProt Q8IU85)
CaMKIδ(h), sequence (Q8IU85 whole entry): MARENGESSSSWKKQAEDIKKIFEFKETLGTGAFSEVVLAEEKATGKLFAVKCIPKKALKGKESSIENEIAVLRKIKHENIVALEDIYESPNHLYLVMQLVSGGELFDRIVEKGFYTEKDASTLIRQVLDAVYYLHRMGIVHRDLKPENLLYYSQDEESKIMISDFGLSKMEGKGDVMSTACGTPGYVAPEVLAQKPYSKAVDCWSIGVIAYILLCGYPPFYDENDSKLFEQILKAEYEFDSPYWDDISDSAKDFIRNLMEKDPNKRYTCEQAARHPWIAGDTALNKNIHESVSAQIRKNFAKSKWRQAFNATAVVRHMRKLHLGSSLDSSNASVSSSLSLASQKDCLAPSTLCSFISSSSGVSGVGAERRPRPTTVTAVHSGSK
Protocol: as §1, §2

[8] = molecular target: T4, SAPK4(h) (Homo sapiens, UniProt O15264)
T4 sequence (O15264 1-365): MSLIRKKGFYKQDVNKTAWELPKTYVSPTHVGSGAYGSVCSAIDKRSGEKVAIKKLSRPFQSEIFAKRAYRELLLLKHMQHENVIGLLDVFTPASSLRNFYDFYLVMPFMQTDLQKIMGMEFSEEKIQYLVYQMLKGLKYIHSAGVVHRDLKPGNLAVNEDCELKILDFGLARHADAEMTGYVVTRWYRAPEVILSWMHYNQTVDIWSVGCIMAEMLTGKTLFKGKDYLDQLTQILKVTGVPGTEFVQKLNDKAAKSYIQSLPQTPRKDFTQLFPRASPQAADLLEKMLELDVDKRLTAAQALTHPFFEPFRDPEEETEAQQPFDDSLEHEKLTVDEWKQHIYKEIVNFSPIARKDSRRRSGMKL
Protocol: as §1, §2

[9] = molecular target: cKit(V654A)(h) (Homo sapiens, UniProt P10721, V654A)
Protocol: as §1, §2

Row | Sequence | DRAK1(h) % activity [1] | Tec(h) activated % activity [2] | PASK(h) % activity [3] | Arg(h) % activity [4] | BrSK1(h) % activity [5] | EphA5(h) % activity [6] | CaMKIδ(h) % activity [7] | SAPK4(h) % activity [8] | cKit(V654A)(h) % activity [9]
1 | FAKLAARLYRKALARQLGVAA [MMI-0300] | 14% | 56% | 29% | 72% | 67% | 18% | 10% | 96% | 134%
2 | KAFAKLAARLYRKALARQLGVAA [MMI-0400] | 14% | 29% | 28% | 84% | 76% | 24% | 17% | 91% | 150%
3 | HRRIKAWLKKIKALARQLGVAA (Mammalian) [MMI-0500] | 8% | 33% | 9% | 22% | 72% | 42% | 0% | 48% | 223%
4 | YARAAARQARAKALNRQLGVA (Mammalian) [MMI-0200] | 34% | 77% | 60% | 82% | 93% | 123% | 47% | – | –
